Article PMC4682845 (2015)

Molecular target: […]-para-nitroanilide (TQ6-pNA) peptide substrate
Assay: ITC

B1: MERS-CoV main protease (M^pro), wild type, authentic N-terminus (enzyme)
chain: SGLVKMSHPSGDVEACMVQVTCGSMTLNGLWLDNTVWCPRHVMCPADQLSDPNYDALLISMTNHSFSVQKHIGAPANLRVVGHAMQGTLLKLTVDVANPSTPAYTFTTVKPGAAFSVLACYNGRPTGTFTVVMRPNYTIKGSFLCGSCGSVGYTKEGSVINFCYMHQMELANGTHTGSAFDGTMYGAFMDKQVHQVQLTDKYCSVNVVAWLYAAILNGCAWFVKPNRTSVVSFNEWALANQFTEFVGTQSVDMLAVKTGVAIEQLLYAIQQLYTGFQGKQILGSTMLEDEFTPEDVNMQIMGVVMQ
Kd: 20.3 µM
